As a reminder, the Kd is the concentration at which binding is half-saturated. Usually EC50 stands for the concentration that produces a half-maximal response. A low value points to higher potency in that assay. For orientation: t½ means how long it takes for the measured level to halve. As a reminder, the IC50 is the point on the concentration scale where inhibition reaches its midpoint. Read a low IC50 as higher potency. What is called koff is a measure of how fast the partners let go of each other. A word on the kon: it is the rate constant with which the complex forms.

Bounds are passed on as bounds.

Data on three molecules can be found in patent US20210147519A1 (Regeneron, published 2021).

Assay [1] concerns the target T1, native human complement component C1q protein purified from human serum (Quidel) (human, UniProt P02745 23-245; P02746 28-253; P02747 29-245).
T1 construct: the protein assayed was bought native serum C1q (Quidel); no signal peptide limits are stated; also called hC1q; human C1q
The experiment in a line: SPR Biacore, captured Ab, hC1q analyte, 37C; 37 C; hC1q binding to the C1q arm of the bispecific antibody. Background: SPR reads the build-up and loss of mass on a sensor chip optically.

Assay [2] concerns the target T2, Recombinant bacterial IsdB expressed with a hexahistidine tag (IsdB-6xHis; REGN2655) (Staphylococcus aureus, UniProt A6QG30 42-613). Description: SPR Biacore, captured Ab, IsdB-6xHis analyte, 37C.
In assay [3] the target is T1, native human complement component C1q …. The experiment in a line: cell-based or functional assay.
For assay [4], the target named is T3, IsdB expressed on the surface of S. aureus Wood 46 (Staphylococcus aureus).
T3 construct: whole, on cells
T3 sequence (Q2FZF0 41-613): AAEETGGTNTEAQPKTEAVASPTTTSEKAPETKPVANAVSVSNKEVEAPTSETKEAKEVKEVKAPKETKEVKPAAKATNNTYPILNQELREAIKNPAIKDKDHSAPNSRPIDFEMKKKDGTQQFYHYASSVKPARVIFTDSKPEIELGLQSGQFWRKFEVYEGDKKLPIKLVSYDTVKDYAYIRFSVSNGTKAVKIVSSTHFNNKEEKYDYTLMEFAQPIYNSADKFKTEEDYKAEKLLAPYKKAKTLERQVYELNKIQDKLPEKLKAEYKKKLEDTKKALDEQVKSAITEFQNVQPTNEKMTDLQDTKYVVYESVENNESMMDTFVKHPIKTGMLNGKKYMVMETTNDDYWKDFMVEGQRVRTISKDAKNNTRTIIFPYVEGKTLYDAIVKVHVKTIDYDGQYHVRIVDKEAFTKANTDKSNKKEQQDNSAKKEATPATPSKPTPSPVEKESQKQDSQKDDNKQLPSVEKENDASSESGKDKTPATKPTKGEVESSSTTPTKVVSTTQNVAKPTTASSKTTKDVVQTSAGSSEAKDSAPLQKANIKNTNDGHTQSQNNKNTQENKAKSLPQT
Description: ELISA on plate-coated S. aureus Wood 46. (An ELISA detects its analyte on a solid surface through an enzyme-linked reagent.)
Description: Briefly, S. aureus Wood 46 was grown in RPMI overnight, washed in PBS and adjusted to an OD₆₀₀ of 0.25. MaxiSorp 96 well microtiter plates were coated overnight with 100 μl of S. aureus culture per well. Plates were washed and blocked with 3% BSA. […] Anti-human HRP conjugated secondary antibody was added to washed plates. Luminescence reagents (SuperSignal Pico) were then added to the wells and signal was detected in a plate reader (Victor X3 plate reader, Perkin Elmer) immediately. Luminescence values were analyzed by a four-parameter logistic equation over a 7-point response curve (GraphPad Prism) to determine the binding EC₅₀, of the antibodies.

Assay [5] has as its target T1, native human complement component C1q …. Description: SPR Biacore, captured Ab, hC1q analyte, 37C.
The target is the same in assay [6]. The experiment in a line: SPR Biacore, captured Ab, hC1q analyte, 25C.
For assay [7] the target is unchanged. The experiment in a line: cell-based or functional assay. The source holds these as a separate data set.
Assay [8] concerns the target T2, Recombinant bacterial IsdB expressed …. Description: SPR Biacore, captured Ab, IsdB-6xHis analyte, 25C.
In assay [9] the target is T1, native human complement component C1q …. Description: SPR Biacore, captured Ab, hC1q analyte, 25C; 25 C; hC1q binding to the C1q arm of the bispecific antibody.
For assay [10] the target is unchanged. Description: cell-based or functional assay. The source holds these as a separate data set.
The target is the same in assay [11]. Description: competition ELISA, 6 nM biot-hC1q, competitor plate-coated hIgG2-k.
The target is the same in assay [12]. Description: competition ELISA, 30 pM biot-hC1q, competitor plate-coated hIgG1-k.
Assay [13] shares this target. Description: competition ELISA, 6 nM biot-hC1q, competitor plate-coated hIgM.
Assay [14] shares this target. Description: competition ELISA, 30 pM biot-hC1q, competitor plate-coated hIgG3-k.

T2 sequence (A6QG30 42-613, tags left off): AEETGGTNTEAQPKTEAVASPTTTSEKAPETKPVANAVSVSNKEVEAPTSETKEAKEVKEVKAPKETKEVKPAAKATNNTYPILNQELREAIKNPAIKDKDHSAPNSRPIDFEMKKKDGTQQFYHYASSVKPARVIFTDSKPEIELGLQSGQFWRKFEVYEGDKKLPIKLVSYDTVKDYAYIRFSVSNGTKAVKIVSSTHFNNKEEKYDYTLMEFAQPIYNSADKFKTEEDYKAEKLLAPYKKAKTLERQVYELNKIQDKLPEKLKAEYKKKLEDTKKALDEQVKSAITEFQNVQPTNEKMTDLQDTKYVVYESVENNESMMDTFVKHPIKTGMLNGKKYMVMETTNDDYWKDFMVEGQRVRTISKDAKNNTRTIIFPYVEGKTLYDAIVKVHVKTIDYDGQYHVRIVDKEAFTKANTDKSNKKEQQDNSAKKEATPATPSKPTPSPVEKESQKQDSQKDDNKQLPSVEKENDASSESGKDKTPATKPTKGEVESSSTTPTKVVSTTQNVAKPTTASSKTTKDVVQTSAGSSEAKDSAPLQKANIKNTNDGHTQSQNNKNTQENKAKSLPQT
T1 sequence (P02745 23-245 limits assumed, chain 1 of 3): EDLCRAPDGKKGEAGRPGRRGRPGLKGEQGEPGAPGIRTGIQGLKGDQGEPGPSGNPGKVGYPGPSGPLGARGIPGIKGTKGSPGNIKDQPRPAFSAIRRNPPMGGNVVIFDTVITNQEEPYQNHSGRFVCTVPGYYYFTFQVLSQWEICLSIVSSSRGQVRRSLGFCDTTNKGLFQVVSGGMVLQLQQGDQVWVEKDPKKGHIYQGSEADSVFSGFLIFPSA
T1 sequence (P02746 28-253 limits assumed, chain 2 of 3): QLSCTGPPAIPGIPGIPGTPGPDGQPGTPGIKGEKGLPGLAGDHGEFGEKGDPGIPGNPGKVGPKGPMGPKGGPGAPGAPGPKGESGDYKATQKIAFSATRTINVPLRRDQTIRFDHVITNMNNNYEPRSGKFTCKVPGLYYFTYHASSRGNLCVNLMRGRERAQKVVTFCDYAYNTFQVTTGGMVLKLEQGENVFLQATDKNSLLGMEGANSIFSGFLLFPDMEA
T1 sequence (P02747 29-245 limits assumed, chain 3 of 3): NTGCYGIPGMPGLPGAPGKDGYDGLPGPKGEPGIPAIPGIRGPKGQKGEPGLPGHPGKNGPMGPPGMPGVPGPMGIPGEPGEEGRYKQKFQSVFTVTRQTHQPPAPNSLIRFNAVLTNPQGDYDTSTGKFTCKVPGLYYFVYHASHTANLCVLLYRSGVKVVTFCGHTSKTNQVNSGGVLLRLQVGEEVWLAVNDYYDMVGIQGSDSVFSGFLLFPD

B1: H1H20631D (bispecific antibody, V domains shown)
VH 1: EVQLVESGGGLVQPGRSLRLSCTTSGFTFDDYAMHWVRQVPGQGLEWVAGLSWNSDTIGYADSVKGRFTISRDNAKNSLYLQMKSLKAEDTALYYCTKDFYHSLNNWNYYYFDYWGQGTLVTVSS
VH 2: EVQLVESGGGVVQPGGSLRLSCAASGFSLDDYAMHWVRQTPGKGLEWVSLISGDGSRTSYADSVKGRFTISRDNSKNSLYLKMNSLRTEDTALYYCTKDPHNSNWFDPWGQGTLVTVSS
VL: not shown
notes: H1H = human IgG1 Fc; also called anti-IsdB x anti-C1q bispecific antibody
For the molecule B1, the Kd in assay [1] turned out to be 0.193 nM; in assay [2], 3.43 nM; in assay [8] it was 2.36 nM; in assay [9], 0.228 nM. Further, the t1/2 in [2] came to 20.7 min; in [5], 5.19 min. For the same molecule, the “Classical Pathway hemolysis assay % inhibition” value in [3] was 100%. In addition, in assay [3], the “Classical Pathway hemolysis assay IC50” value was 2.67 nM. This molecule came in with an EC50 in assay [4] of 1.26 nM. Also, the t½ was found to be 7.01 min in assay [6] and 42.8 min in assay [8]. For the same molecule, the “inhibition of CDC of Daudi cells, IC50 [M]” value (“inhibition of CDC … [M]” below) in assay [7] is greater than 1e-07 M. In addition, the “inhibition of CDC of Daudi cells, Max % Inhibition” value (“inhibition … Max % Inhibition” for short) in assay [7] came out at 94%. The “C1q deposition on S. aureus Cowan I EC50” value in [10] came out at 0.297 nM.

B2: H1H20633D (bispecific antibody, V domains shown)
VH 1: B1 VH 1
VH 2: EVQLVQSGAEVKKPGESLKISCKASGYNFNSYWIGWVRQMPGKGLEWMGIVFPGDSDTRYSPSFQGQVTISADESINTAYLQWSSLKASDTAVYYCARHTRWYLDYWGQGTLVTVSS
VL: not shown
notes: also called anti-IsdB x anti-C1q bispecific antibody
For B2, in assay [11], the “% Blockade with 600 nM bispecific Ab” value is 79% and the IC50 was determined as 8.2 nM. For the same molecule, in [2], the Kd amounted to 3.41 nM, the koff is 0.00054 s⁻¹, the kon amounted to 159000 M⁻¹ s⁻¹ and the t1/2 came to 21.4 min. For the same molecule, in assay [3], the “Classical Pathway hemolysis assay % inhibition” value amounted to 100% and the “Classical Pathway hemolysis assay IC50” value was 1.42 nM. For the same molecule, in assay [12], the “% Blockade with 30 nM bispecific Ab” value is 93% and the IC50 is 1.6 nM. In assay [4], this molecule had a concentration giving a half-maximal response (EC50) of 1.31 nM. In assay [5], this molecule came in with a Kd of 0.487 nM, a koff of 0.0127 s⁻¹, a kon of 2.61e+07 M⁻¹ s⁻¹ and a t1/2 of 0.91 min. Further, in [6], the Kd stood at 0.271 nM, the koff came to 0.00348 s⁻¹, the kon stood at 1.28e+07 M⁻¹ s⁻¹ and the t½ is 3.32 min. In [7], the “inhibition of CDC … [M]” value stood at 1.7e-08 M and the “inhibition … Max % Inhibition” value is no less than 99%. Moreover, in assay [13], the “% Blockade with 600 nM bispecific Ab” value came out at 96% and the IC50 came to 6.4 nM. In assay [8], the Kd is 2.04 nM, the koff is 0.000247 s⁻¹, the kon was found to be 121000 M⁻¹ s⁻¹ and the t½ was 46.9 min. In addition, the “C1q deposition on S. aureus Cowan I EC50” value in [10] was determined as 0.203 nM. For the same molecule, in [14], the “% Blockade with 30 nM bispecific Ab” value turned out to be 84% and the IC50 worked out at 4.8 nM.

B3: H1H20635D (bispecific antibody, V domains shown)
VH 1: B1 VH 1
VH 2: EVQLVQSGAEVKKPGESLKIFCKGSGYSFINDWIGWVRQMPGKGLEWMGLIFPGDSDTRYSPVFQGHVTISADQSIDTAYLQWNSLKASDTAIYYCAVLRYWHFAIWGRGTLVTVSS
VL: not shown
notes: as for B2
Molecule B3 had a Kd in [1] of 0.723 nM. Also, in [11], the “% Blockade with 600 nM bispecific Ab” value came out at 84% and the IC50 was found to be 16 nM. Besides, in assay [2], the Kd came out at 3.33 nM, the koff amounted to 0.00052 s⁻¹, the kon stood at 156000 M⁻¹ s⁻¹ and the t1/2 was 22.2 min. In addition, in assay [3], the “Classical Pathway hemolysis assay % inhibition” value amounted to 97% and the “Classical Pathway hemolysis assay IC50” value stood at 8.88 nM. Besides, in assay [12], the “% Blockade with 30 nM bispecific Ab” value is 87%. This molecule also registered an EC50 in assay [4] of 1.96 nM. Further, in assay [5], the off-rate (koff) came out at 0.0174 s⁻¹, the kon amounted to 2.41e+07 M⁻¹ s⁻¹ and the t1/2 worked out at 0.66 min. In assay [6], this molecule showed a koff of 0.00452 s⁻¹, a kon of 1.46e+07 M⁻¹ s⁻¹ and a t½ of 2.56 min. In assay [7], the “inhibition of CDC … [M]” value worked out at 2.8e-08 M and the “inhibition … Max % Inhibition” value was no less than 99%. Moreover, in assay [13], the “% Blockade with 600 nM bispecific Ab” value is 93% and the IC50 stood at 12 nM. In assay [8], the Kd worked out at 1.7 nM, the koff was determined as 0.000204 s⁻¹, the kon stood at 120000 M⁻¹ s⁻¹ and the t½ was 56.6 min. The Kd in [9] turned out to be 0.309 nM. Moreover, the “C1q deposition on S. aureus Cowan I EC50” value in assay [10] worked out at 0.425 nM. For the same molecule, the “% Blockade with 30 nM bispecific Ab” value in assay [14] was found to be 53%.
